In general, stoichiometry N refers to the number of molecules, sites or subunits per partner or assembly. As usually defined, the Kd is the equilibrium constant for the complex coming apart.

This note sets out measurements from PMC4751538, “Structural Insights into the Tetrameric State of Aspartate-β-semialdehyde Dehydrogenases from Fungal Species” (Scientific Reports, 2016).

Changes are numbered by the printed parent chain. Names and notes keep the numbering of the source.

Data set [1] concerns the target Aspartate-β-semialdehyde dehydrogenase from Streptococcus pneumoniae (Streptococcus pneumoniae). Put plainly: native gel or EMSA; native PAGE (3-12%), migration against molecular weight standards.
The target is the same in data set [2]. Put plainly: AUC; sedimentation velocity, 4 °C, 20 mM Tris pH 8.0, 100 mM NaCl, all proteins at OD280 = 0.85, 50,000 rpm, Sedfit.
The target in data set [3] is Aspartate-β-semialdehyde dehydrogenase from Aspergillus fumigatus (A. fumigatus). Put plainly: native gel or EMSA; native PAGE (3-12%), migration against molecular weight standards.
Data set [4] addresses Aspartate-β-semialdehyde dehydrogenase from Cryptococcus neoformans (C. neoformans). Described as above.
The target of data set [5] is Aspartate-β-semialdehyde dehydrogenase from Vibrio cholerae (V. cholerae). The data set is described as above.
Data set [6] addresses T1, trASADH (T. rubrum aspartate-β-semialdehyde dehydrogenase) (Trichophyton rubrum, UniProt A0A080WMA9).
T1 construct: gene TERG_03598; full length 362 aa, N-terminal 6xHis tag (pET-28a), E. coli; homotetramer
T1 sequence (A0A080WMA9 1-362): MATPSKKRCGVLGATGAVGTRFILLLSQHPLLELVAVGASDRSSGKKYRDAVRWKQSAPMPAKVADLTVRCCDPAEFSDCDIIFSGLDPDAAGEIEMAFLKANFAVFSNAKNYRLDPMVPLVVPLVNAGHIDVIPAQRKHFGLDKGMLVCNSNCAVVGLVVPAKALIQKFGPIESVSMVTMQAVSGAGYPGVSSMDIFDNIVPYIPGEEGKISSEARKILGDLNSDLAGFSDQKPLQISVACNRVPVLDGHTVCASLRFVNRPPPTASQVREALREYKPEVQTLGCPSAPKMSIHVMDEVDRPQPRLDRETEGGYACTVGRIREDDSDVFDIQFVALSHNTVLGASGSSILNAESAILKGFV
Put plainly: isothermal titration calorimetry. It is filed as binding. (In general: In ITC the heat of successive injections is recorded.)

Data set [7] deals with the molecule itself. Put plainly: SEC; Superose 6 PC3.2/30, 20 mM Tris-HCl pH 8.0, 100 mM NaCl, ~3 mg/ml, calibrated with mass standards (also the final Superdex 200 purification step). In general terms: SEC sorts molecules by how far they enter the pores of the column.
Data set [8] concerns the molecule itself. Put plainly: cell-based or functional assay.
Data set [9] deals with the molecule itself. Put plainly: AUC; sedimentation velocity, 4 °C, 20 mM Tris pH 8.0, 100 mM NaCl, all proteins at OD280 = 0.85, 50,000 rpm, Sedfit.
Data set [10] deals with the molecule itself. Put plainly: native gel or EMSA; native PAGE (3-12%), migration against molecular weight standards. (In EMSA bound probe runs differently from free probe, usually more slowly.)

As for “Aspartate-β-semialdehyde dehydrogenase from Streptococcus pneumoniae (enzyme)”, the stoichiometry N in [1] and in data set [2] was 2 each time.

For “Aspartate-β-semialdehyde dehydrogenase from Aspergillus fumigatus (enzyme)”, the stoichiometry N in [3] is 4. For the molecule “Aspartate-β-semialdehyde dehydrogenase from Cryptococcus neoformans (enzyme)”, in data set [4], the stoichiometry N stood at 4. The molecule “Aspartate-β-semialdehyde dehydrogenase from Vibrio cholerae (enzyme)” had a stoichiometry N in data set [5] of 2.

On to `NC(=O)c1ccc[n+]([C@@H]2O[C@H](COP(=O)(O)OP(=O)(O)OC[C@H]3O[C@@H](n4cnc5c(N)ncnc54)[C@H](OP(=O)(O)O)[C@@H]3O)[C@@H](O)[C@H]2O)c1` [NADP], for which, in [6], the affinity, expressed as Kd, was 76.9 µM.

B1: trASADH with mutation D196A (enzyme)
chain: SKKRCGVLGATGAVGTRFILLLSQHPLLELVAVGASDRSSGKKYRDAVRWKQSAPMPAKVADLTVRCCDPAEFSDCDIIFSGLDPDAAGEIEMAFLKANFAVFSNAKNYRLDPMVPLVVPLVNAGHIDVIPAQRKHFGLDKGMLVCNSNCAVVGLVVPAKALIQKFGPIESVSMVTMQAVSGAGYPGVSSMAIFDNIVPYIPGEEGKISSEARKILGDLNSDLAGFSDQKPLQISVACNRVPVLDGHTVCASLRFVNRPPPTASQVREALREYKPEVQTLGCPSAPKMSIHVMDEVDRPQPRLDRETEGGYACTVGRIREDDSDVFDIQFVALSHNTVLGASGSSILNAESAILKGFV
notes: Aspartate-β-semialdehyde dehydrogenase of Trichophyton rubrum BMU01672 (362 aa) with the point mutation D196A; parent as m1; source: E. coli B834(DE3) or Rosetta(DE3), purified (Ni-NTA, Hitrap Q, Superdex 200)
Regarding B1, the “stoichiometry N” value in data set [7] was determined as 4. In addition, the “enzymatic activity (kcat) at 25 °C, tetrameric single mutant” value (“enzymatic activity (kcat) at 25 °C” below) in [8] stood at 15.9 s⁻¹.

B2: trASADH with mutation R309A (enzyme)
chain: B1 chain with A192D, R305A
notes: Aspartate-β-semialdehyde dehydrogenase of Trichophyton rubrum BMU01672 (362 aa) with the point mutation R309A; parent as m1; source: E. coli B834(DE3) or Rosetta(DE3), purified (Ni-NTA, Hitrap Q, Superdex 200)
As for B2, the “stoichiometry N” value in [7] amounted to 4. The “enzymatic activity (kcat) at 25 °C” value in data set [8] is 12.9 s⁻¹.

B3: Aspartate-β-semialdehyde dehydrogenase from Trichophyton rubrum, wild type (enzyme)
chain: B1 chain with A192D
notes: Aspartate-β-semialdehyde dehydrogenase (ASADH) of Trichophyton rubrum BMU01672, wild type, 362 aa as printed; theoretical monomer 38.7 kDa; The apo crystal (4ZHS) was a selenomethionine derivative; Cloned in pET-28a; also called trASADH; ASADH; source: E. coli B834(DE3) or Rosetta(DE3), purified (Ni-NTA, Hitrap Q, Superdex 200)
Take B3: the “stoichiometry N” value in data set [9] was 4.

B4: trASADH with mutation Y189A (enzyme)
chain: B1 chain with Y185A, A192D
notes: Aspartate-β-semialdehyde dehydrogenase of Trichophyton rubrum BMU01672 (362 aa) with the point mutation Y189A; parent as m1; also called trASADH-Y189A; source: E. coli B834(DE3) or Rosetta(DE3), purified (Ni-NTA, Hitrap Q, Superdex 200)
As to B4, in data set [9], the “stoichiometry N” value was found to be 4.

B5: trASADH with mutation F198A (enzyme)
chain: B1 chain with A192D, F194A
notes: Aspartate-β-semialdehyde dehydrogenase of Trichophyton rubrum BMU01672 (362 aa) with the point mutation F198A; parent as m1; also called trASADH-F198A; Mutant F198A; source: E. coli B834(DE3) or Rosetta(DE3), purified (Ni-NTA, Hitrap Q, Superdex 200)
With B5, the “stoichiometry N” value in data set [9] worked out at 4. Further, the “enzymatic activity (kcat) at 25 °C” value in [8] was determined as 15.7 s⁻¹.

B6: trASADH with the triple mutation R309A-D196A-F198A (enzyme)
chain: B1 chain with F194A, R305A
notes: Aspartate-β-semialdehyde dehydrogenase of Trichophyton rubrum BMU01672 (362 aa) with R309A, D196A and F198A; parent as m1; also called trASADH R309A-D196A-F198A; dimeric triple mutant; source: E. coli B834(DE3) or Rosetta(DE3), purified (Ni-NTA, Hitrap Q, Superdex 200)
For the molecule B6, the “stoichiometry N” value in [9] was determined as 2.

B7: Aspartate-β-semialdehyde dehydrogenase from Candida albicans (enzyme)
chain: MSVKKAGVLGATGSVGQRFILLLSKHPEFEIHALGASSRSAGKKYKDAASWKQTETLPETEQDIVVQECKPEGNFLECDVVFSGLDADVAGDIEKSFVEAGLAVVSNAKNYRREKDVPLVVPIVNPEHIDVVENKVKQAVSKGGKKPGFIICISNCSTAGLVAPLKPLVEKFGPIDALTTTTLQAISGAGFSPGVSGMDILDNIVPYISGEEDKLEWETKKILGGVNAEGTEFVPIPESEMKVSAQCNRVPVIDGHTECISLRFANRPAPSVEDVKQCLREYECAASKLGCHSAPKQTIHVLDQPDRPQPRLDRDRDSGYGVSVGRIREDSLLDFKMVVLSHNTIIGAAGAGILIAEILKAKNII
notes: Aspartate-β-semialdehyde dehydrogenase of Candida albicans (fungal ASADH); The construct used for native PAGE is not described; also called caASADH; C. albicans ASADH
Take B7: the “stoichiometry N” value in [10] came out at 4.
